A word on the Kd: it is the free concentration of one partner at which half of the binding sites on the other are occupied at equilibrium, for simple one-to-one binding.

Results on one molecule are retold here after publication PMC11065761 (The Journal of Biological Chemistry, 2024).

The target in the experiment is C3b. Put plainly: SPR. (In general: SPR reads the build-up and loss of mass on a sensor chip optically.)

B1: TriFu_no_linker (triple fusion complement inhibitor without polyglycine linker between DAF and FH) (other)
chain: DCGLPPDVPNAQPALEGRTSFPEDTVITYKCEESFVKIPGEKDSVICLKGSQWSDIEEFCNRSCEVPTRLNSASLKQPYITQNYFPVGTVVEYECRPGYRREPSLSPKLTCLQNLKWSTAVEFCKKKSCPNPGEIRNGQIDVPGGILFGATISFSCNTGYKLFGSTSSFCLISGSSVQWSDPLPECREIYCPAPPQIDNGIIQGERDHYGYRQSVTYACNKGFTMIGEHSIYCTVNNDEGEWSGPPPECRGGKCGPPPPIDNGDITSFPLSVYAPASSVEYQCQNLYQLEGNKRITCRNGQWSEPPKCLHPCVISREIMENYNIALRWTAKQKLYSRTGESVEFVCKRGYRLSSRSHTLRTTCWDGKLEYPTCAKRGHCQAPDHFLFAKLKTQTNASDFPIGTSLKYECRPEYYGRPFSITCLDNLVWSSPKDVCKRKSCKTPPDPVNGMVHVITDIQVGSRINYSCTTGHRLIGHSSAECILSGNTAHWSTKPPICQRIPCGLPPTIANGDFISTNRENFHYGSVVTYRCNLGSRGRKVFELVGEPSIYCTSNDDQVGIWSGPAPQCII
With B1, the Kd turned out to be 98 nM.
